Source: patent publication US20090060925A1, “Rage Fusion Proteins and Methods of Use” (THE TRUSTEES OF COLUMBIA UNIVERSITY IN THE CITY OF, priority 2004, published 2009)

Columns and labels:
[1] = test system: S100b/RAGE-induced production of TNF-α in THP-1 cells; assay: Inhibition of S100b/RAGE-induced production of TNF-α in THP-1 cells; type: cell-based; conditions: 10 μg protein, S100b 0.1 mg/ml, 24 hours
Description: THP-1 myeloid cells may be cultured in RPMI-1640 media supplemented with 10% FBS and induced to secrete TNF-α via stimulation of RAGE with S100b. When such stimulation occurs in the presence of a RAGE fusion protein, induction of TNF-α by S100b binding to RAGE may be inhibited.
Previous work has shown that the myeloid THP-1 cells may secrete TNF-α in response to RAGE ligands. In this assay, THP-1 cells were cultured in RPMI-1640 media supplemented with 10% FBS using a protocol provided by ATCC. […] The amount of TNF-α secreted by the THP-1 cells was measured 24 hours after the addition of the proteins to the cell culture using a commercially available ELISA kit for TNF-α (R&D Systems, Minneapolis, Minn.).

[2] = test system: amyloid-beta; assay: Competition of a RAGE ligand with immobilized amyloid-beta for binding to the fusion protein; conditions: RAGE ligand FAC 10 μM
Description: The fusion protein of the present invention may also be used to identify compounds having the ability to bind to RAGE.
Known RAGE ligands were coated onto the surface of Maxisorb plates at a concentration of 5 micrograms per well. Plates were incubated at 4° C. overnight. Following ligand incubation, plates were aspirated and a blocking buffer of 1% BSA in 50 mM imidizole buffer (pH 7.2) was added to the plates for 1 hour at room temperature. The plates were then aspirated and/or washed with wash buffer (20 mM Imidizole, 150 mM NaCl, 0.05% Tween-20, 5 mM CaCl2 and 5 mM MgCl2, pH 7.2). […] The fusion protein was added at increasing dilutions of the initial sample. The RAGE fusion protein was allowed to incubate with the immobilized ligand at 37° C. for one hour after which the plate was washed and assayed for binding of the fusion protein. Binding was detected by the addition of an immunodetection complex containing a monoclonal mouse anti-human IgG1 diluted 1:11,000 to a final assay concentration (FAC) of 21 ng/100 μL, a biotinylated goat anti-mouse IgG diluted 1:500, to a FAC of […], and an avidin-linked alkaline phosphatase. […] Binding of the complex to the immobilized fusion protein was quantified by measuring conversion of PNPP to para-nitrophenol (PNP) which was measured spectrophotometrically at 405 nm. […]

[3] = test system: animal model of stroke; assay: Mouse model of stroke (carotid artery ligation and reperfusion, infarct); type: in vivo; conditions: Table 2
Description: In this model, the middle carotid artery of a mouse was ligated for 1 hour followed by 23 hours of reperfusion at which point the mice were sacrificed and the area of the infarct in the brain was assessed. […] Mice were injected intraperitoneally, 1 hour after the initiation of ischemia. Mice were subjected to one hour of cerebral ischemia followed by 24 hours of reperfusion. To induce ischemia, each mouse was anesthetized and body temperature was maintained at 36-37° C. by external warming. The left common carotid artery (CCA) was exposed through a midline incision in the neck. A microsurgical clip was placed around the origin of the internal carotid artery (ICA). […] After the nylon suture had been in place for 1 hour, the animal was re-anesthetized, rectal temperature was recorded and the suture was removed and the incision closed. Infarct volume was determined by anesthetizing the animals with an intraperitoneal injection of sodium pentobarbital (50 mg/kg) and then removing the brains. […] The infarct area in each section was determined with a computer-assisted image analysis system, consisting of a Power Macintosh computer equipped with a Quick Capture frame grabber card, Hitachi CCD camera mounted on a camera stand. […] The images were captured and the total area of infarct was determined over the sections. […] Summing the infarct volumes of the sections calculated the total infarct volume. […]

[4] = test system: Fc receptor; assay: Fc receptor activation, TNF-α secretion from THP-1 cells; type: cell-based; conditions: well precoated with 10 ug/well heat aggregated protein; 24 hours
Source text: Fc stimulation results in TNF-α secretion.

B1: TTP-4000: four domain RAGE fusion protein, SEQ ID NO: 32: human RAGE amino acids 1-251 linked to CH2 and CH3 domains of human IgG (protein, listed as Homo sapiens)
chain: MAAGTAVGAWALVLSLWGAVVGAQNITARIGEPLVLKCKGAPKKPPQRLEWKLNTGRTEAWKVLSPQGGGPWDSVARVLPNGSLFLPAVGIQDEGIFRCQAMNRNGKETKSNYRVRVYQIPGKPEIVDSASELTAGVPNKVGTCVSEGSYPAGTLSWHLDGKPLVPNEKGVSVKEQTRRHPETGLFTLQSELMVTPARGGDPRPTFSCSFSPGLPRHRALRTAPIQPRVWEPVPLEEVQLVVEPEGGAVAPPSVFLFPPKPKDTLMISRTPEVTCVVVDVSHEDPEVKFNWYVDGVEVHNAKTKPREEQYNSTYRVVSVLTVLHQDWLNGKEYKCKVSNKALPAPIEKTISKAKGQPREPQVYTLPPSRDELTKNQVSLTCLVKGFYPSDIAVEWESNGQPENNYKTTPPVLDSDGSFFLYSKLTVDKSRWQQGNVFSCSVMHEALHNHYTQKSLSLSPGK
effect on S100b induction of TNF-α, in words [1]: at least as effective in blocking S100b induction of TNF-α as is sRAGE
binding of fusion protein to immobilized amyloid-beta inhibited by the RAGE ligand ([2]; fusion protein initial solution diluted 1:10): completely inhibited
binding of fusion protein to immobilized amyloid-beta inhibited by the RAGE ligand ([2]; fusion protein initial solution diluted 1:30): completely inhibited
limiting the area of infarct, compared with sRAGE [3]: more efficacious than sRAGE
TNF secreted by THP-1 cells [4]: less than 2 ng/well
